Measured values from publication PMC4333420, “REV7 is essential for DNA damage tolerance via two REV3L binding sites in mammalian DNA polymerase ζ” (Nucleic Acids Research, 2015).

Biological target: T1, His-REV7 (human, UniProt Q9UI95 1-211)
T1 construct: REV7 (MAD2L2), human; amplified from REV7 cDNA with primers from the start codon to the stop codon, cloned into pETDuet-1; Cloned into pETDuet-1 (SalI-NotI); also called His-REV7 fusion protein; source: E. coli, purified
Test: pull-down; GST-fusion REV3L fragment, His-REV7 and Glutathione-Sepharose 4B beads, 4°C for 4 h in 500 μl of 0.1B; blot with anti-His and anti-GST
Conditions: both partners purified

T1 sequence (Q9UI95 whole entry, the tested form may be a part): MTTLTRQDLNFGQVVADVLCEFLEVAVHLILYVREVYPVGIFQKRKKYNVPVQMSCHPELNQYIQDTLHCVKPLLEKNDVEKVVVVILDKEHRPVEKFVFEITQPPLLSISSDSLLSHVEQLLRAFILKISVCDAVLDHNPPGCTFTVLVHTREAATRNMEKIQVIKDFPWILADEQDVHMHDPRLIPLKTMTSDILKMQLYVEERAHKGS

| binding result | Binder |
| --- | --- |
| binds | GST-REV3L 1847–1898 (domain or fragment, human, UniProt O60673 1847-1898, looked up, Cloned into pGEX6P-1 (GE Healthcare); also called positive control; source: E. coli, purified) MLTPTPDSSPRSTSSPSQSKNGSFTPRTANILKPLMSPPSREEIMATLLDHD |
| binds | GST-REV3L 1974–2025 (domain or fragment, human, UniProt O60673 1974-2025, looked up, Cloned into pGEX6P-1 (GE Healthcare); source: E. coli, purified) GVVNKGSSNSPKMVEDKKIVIMPCKCAPSRQLVQVWLQAKEEYERSKKLPKT |
